{"source": "paper PMC11376570", "about": "“Enhancing the therapeutic potential of P29 protein-targeted monoclonal antibodies in the management of alveolar echinococcosis through CDC-mediated mechanisms” (PLOS Pathogens, 2024)", "binders": {"B1": {"name": "4G10F4 monoclonal antibody against rEgP29 (antibody, V domains shown)", "VH": "EVKLEESGPGLVAPSQSLSITCTVSGFSLFSYAVHWVRQPPGKGLEWLGVIWAGGSTDYNSALMSRLSISKDNSKSQVFLKMNSLQTDDTAMYYCASIHYYGYWHFDVWGAGTTVTVSS", "VL": "DIVMTQSPLSLPVSLGDQASISCRSSQSIVHSNGNTYLEWYLQKPGQSPKLLIYKVSNRFSGVPDRFSGSGSGTDFTLKISRVEAEDLGVYYCFQGSHVPYTFGGGTKLEIK", "notes": "Mouse IgG1 (subtype by ELISA); also called 4G10F4 mAb; anti-P29 mAb; source: mouse hybridoma (BALB/c splenocytes fused with Sp2/0), culture supernatant; also purified from serum-free supernatant (protein G column)"}}, "key": {"[1]": {"target": "T1, peptide 13 of the 45 overlapping peptides of rEgP29 (Echinococcus granulosus)", "T1 construct": "residues 61-75 of P29 of Echinococcus granulosus, one of 45 overlapping 15-mers (overlap of 10 residues); source: synthetic peptide", "T1 chain": "NIASKVADAFQKNKE", "assay": "ELISA; peptide scan by indirect ELISA; 45 overlapping 15-mer peptides of rEgP29 coated at 5 ug/mL; purified mAb at 1:5,000", "details": "both partners purified"}, "[2]": {"target": "T2, recombinant Echinococcus granulosus P29 (Echinococcus granulosus, UniProt Q9U8G7)", "T2 construct": "P29, 29 kDa antigen of Echinococcus granulosus, GenBank AAD53328.1; 238 amino acids by the BLAST comparison with E. multilocularis P29 (235/238); band at about 30 kDa on SDS-PAGE; also called rEgP29; rEg.P29", "T2 sequence (Q9U8G7 whole entry)": "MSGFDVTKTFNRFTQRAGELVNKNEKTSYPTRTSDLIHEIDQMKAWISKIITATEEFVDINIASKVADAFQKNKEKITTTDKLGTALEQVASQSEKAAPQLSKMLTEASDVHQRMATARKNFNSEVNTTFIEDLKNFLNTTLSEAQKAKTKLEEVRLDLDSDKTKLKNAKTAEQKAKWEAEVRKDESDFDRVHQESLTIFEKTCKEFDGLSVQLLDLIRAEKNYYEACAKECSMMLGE", "assay": "SPR; called SPR by the paper; mAb 4G10F4 (5 ug/mL) captured on the AMC probe, antigen P29 at 500, 250, 125, 62.5, 31.3 and 0 nM in PBST; Octet RH16 (Sartorius), Data Analysis 12.0", "details": "both partners purified"}}, "data": [{"binder": "B1", "values": [{"measurement": "binding result", "setting": "[1]", "value": "binds"}, {"measurement": "Kd", "setting": "[2]", "value": 6.29, "unit": "nM"}, {"measurement": "koff", "setting": "[2]", "value": 0.00049, "unit": "s⁻¹"}, {"measurement": "kon", "setting": "[2]", "value": 77800, "unit": "M⁻¹ s⁻¹"}]}]}
